From patent US20090118167A1, “Selective Vpac2 Receptor Peptide Agonists” (Eli Lilly and Company Patent Division, priority 2004, published 2009)
Marks after values point to notes of the source that are not given here. Square brackets hold non-standard residues; d marks the D form. Ends that are not written are not given here. Nle = CCCC[C@H](N)C(=O)O; Orn = NCCC[C@H](N)C(=O)O; Aib = CC(C)(N)C(=O)O

T1: human VPAC1 (Homo sapiens, UniProt P32241)
T1 construct: expressed in transfected cells
T1 sequence (P32241 31-457): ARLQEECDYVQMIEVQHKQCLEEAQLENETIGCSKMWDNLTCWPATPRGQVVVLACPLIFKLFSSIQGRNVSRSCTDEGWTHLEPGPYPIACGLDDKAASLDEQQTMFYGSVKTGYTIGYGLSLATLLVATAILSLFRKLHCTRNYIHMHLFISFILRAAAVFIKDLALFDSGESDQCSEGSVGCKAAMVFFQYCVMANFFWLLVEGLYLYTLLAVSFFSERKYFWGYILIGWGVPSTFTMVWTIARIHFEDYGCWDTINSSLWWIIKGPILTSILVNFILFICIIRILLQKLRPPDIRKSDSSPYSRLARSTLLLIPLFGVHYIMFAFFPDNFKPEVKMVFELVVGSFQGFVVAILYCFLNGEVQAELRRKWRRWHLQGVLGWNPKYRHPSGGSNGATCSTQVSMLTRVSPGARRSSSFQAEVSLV

T2: human PAC1 (Homo sapiens, UniProt P41586)
T2 construct: expressed in transfected cells; membranes)
T2 sequence (P41586 21-468): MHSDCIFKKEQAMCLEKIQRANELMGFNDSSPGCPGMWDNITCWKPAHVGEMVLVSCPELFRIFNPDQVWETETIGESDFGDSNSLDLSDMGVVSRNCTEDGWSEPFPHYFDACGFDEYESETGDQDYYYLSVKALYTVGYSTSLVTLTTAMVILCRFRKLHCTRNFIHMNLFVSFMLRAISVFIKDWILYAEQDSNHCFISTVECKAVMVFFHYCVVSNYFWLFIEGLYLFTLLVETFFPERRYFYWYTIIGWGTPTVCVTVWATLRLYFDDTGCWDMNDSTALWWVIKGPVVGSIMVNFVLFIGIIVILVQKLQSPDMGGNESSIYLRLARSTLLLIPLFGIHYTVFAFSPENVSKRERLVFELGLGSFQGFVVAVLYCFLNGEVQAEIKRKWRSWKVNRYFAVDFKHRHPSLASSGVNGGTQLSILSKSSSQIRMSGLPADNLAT

T3: human VPAC2 receptor (human, UniProt P41587 24-438)
T3 sequence (looked up): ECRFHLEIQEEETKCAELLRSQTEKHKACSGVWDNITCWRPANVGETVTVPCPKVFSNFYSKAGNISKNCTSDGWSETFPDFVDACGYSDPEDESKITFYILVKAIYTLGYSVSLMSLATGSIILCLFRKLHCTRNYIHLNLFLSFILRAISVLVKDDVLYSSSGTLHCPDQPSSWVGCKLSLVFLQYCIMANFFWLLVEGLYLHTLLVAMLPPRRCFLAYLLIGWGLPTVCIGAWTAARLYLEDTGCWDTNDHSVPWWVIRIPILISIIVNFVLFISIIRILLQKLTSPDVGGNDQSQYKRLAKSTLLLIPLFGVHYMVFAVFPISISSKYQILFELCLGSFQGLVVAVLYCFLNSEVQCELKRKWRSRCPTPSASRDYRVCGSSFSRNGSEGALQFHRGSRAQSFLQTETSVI

B1: P268 (cyclic PEGylated VPAC2 receptor peptide agonist) (peptide)
peptide: HSDAVFTENYTKLRKQ[Nle]AAKKYLNDLKQKGGPSSGAPPPC
modifications: ends and bridges not checked; also: cyclic bridge (lactam or disulfide), places not given here, PEGylated, site not given here

Tests used:
[1] = rat, in vivo, sc, 0.1 mg/kg
Experimental: Healthy Fisher 344 rats (3 animals per group) are injected with 100 μg compound/kg (compound amount based on peptide content and dissolved in PBS buffer). […] PK parameters are then calculated using a model-independent method (WinNonlin Pro, Pharsight Corp., Mountain View, Calif., USA).

human VPAC1 = target: T1, human VPAC1; experiment: Filter binding assay, 125I-labeled VIP tracer; details: membranes from cells transiently transfected with human VPAC1; read-out: Human receptor binding IC50 VPAC1
Experimental: (§1) In order to prepare the filter plates, the presoak solution is aspirated by vacuum filtration. The plates are flushed twice with 200 μL flush buffer. 200 μL blocking buffer is added to the filter plate. The filter plate is then incubated with 200 μL presoak solution for 1 hour at room temperature.
(§2) The assay plate is filled with 25 μL assay buffer, 25 μL membranes (2.5 μg) suspended in assay buffer, 25 μL compound (agonist) in assay buffer, and 25 μL tracer (about 40000 cpm) in assay buffer. The filled plate is incubated for 1 hour with shaking.
(§3) The transfer from assay plate to filter plate is conducted. The blocking buffer is aspirated by vacuum filtration and washed two times with flush buffer. 90 μL is transferred from the assay plate to the filter plate. The 90 μL transferred from assay plate is aspirated and washed three times with 200 μL flush buffer. The plastic support is removed. It is dried for 1 hour at 60° C. 30 μL Microscint is added. The count is performed.
(§4) Values reported are single results or the mean of two or more independent runs.

Normal Wistar rats = experiment: Intravenous glucose tolerance test (IVGTT); type: in vivo, rat
Experimental: Intravenous glucose tolerance test (IVGTT): Normal Wistar rats are fasted overnight and are anesthetized prior to the experiment. A blood sampling catheter is inserted into the rats. The compound is given in the jugular vein. Blood samples are taken from the carotid artery. A blood sample is drawn immediately prior to the injection of glucose along with the compound. After the initial blood sample, glucose mixed with compound is injected intravenously (i.v.). Compound may also be injected intravenously or subcutaneously prior to the glucose challenge. A glucose challenge of 0.5 g/kg body weight is given, injecting a total of 1.5 mL vehicle with glucose and agonist per kg body weight. The peptide concentrations are varied to produce the desired dose in μg/kg. Blood samples are drawn at 2, 4, 6 and 10 minutes after giving glucose. The control group of animals receives the same vehicle along with glucose, but with no compound added. In some instances, a 30 minute post-glucose blood sample is drawn. Aprotinin is added to the blood sample (250-500 kIU/ml blood). The serum is then analyzed for glucose and insulin using standard methodologies.
The assay uses a formulated and calibrated peptide stock in PBS. Normally, this stock is a prediluted 100 μM stock. However, a more concentrated stock with approximately 1 mg agonist per mL is used. The specific concentration is always known. Variability in the maximal response is mostly due to variability in the vehicle dose.

human PAC1 = target: T2, human PAC1; experiment: Filter binding assay, 125I-labeled PACAP-27 tracer; details: membranes from cells transiently transfected with human PAC1; read-out: Human receptor binding IC50 PAC1
Experimental: as §1, §2, §3, §4

human VPAC2 receptor [2] = target: T3, human VPAC2 receptor; experiment: cell-based or functional assay
human VPAC2 receptor [3] = target: T3, human VPAC2 receptor; experiment: filter binding assay, human VPAC2 membranes, displacement of 125I-VIP
Experimental: as §2, §3

Molecule | IC50 (human VPAC1) [µM] | IC50 (human PAC1) [µM] | EC50 for cAMP generation, Alpha screen (human VPAC2 receptor [2]) [µM] | further results
P201: cyclic PEGylated VPAC2 receptor peptide agonist; P200 reacted with methoxy-PEG2-MAL-40K (HSDAVFTENYTKLRKQ[Nle]AAKKYLNDLKKGGPSSGAPPPC(methoxy‑PEG2‑MAL‑40K); ends and bridges not checked; also: cyclic, bridge kind and places not given here) [Agonist P201] | > 3 |  |  | AUC0-last [1]: 8101 ng·h/mL; Cl/F [1]: 0.2 mL/min/kg; Vd/F [1]: 0.214 L/kg; % increase AUC (insulin, 0-10 min after glucose) (Normal Wistar rats; Dose 10 μg/kg iv, 0 h between glucose & compound): +146%; % increase AUC (insulin, 0-10 min after glucose) (Normal Wistar rats; Dose 10 μg/kg iv, 4 h between glucose & compound): +104%; % increase AUC (insulin, 0-10 min after glucose) (Normal Wistar rats; Dose 30 μg/kg iv, 4 h between glucose & compound): +191%; % increase AUC (insulin, 0-10 min after glucose) (Normal Wistar rats; Dose 100 μg/kg iv, 4 h between glucose & compound): +183%; % increase AUC (insulin, 0-10 min after glucose) (Normal Wistar rats; Dose 300 μg/kg, given subcutaneously, 24 h between glucose & compound): +209%; % increase AUC (insulin, 0-10 min after glucose) (Normal Wistar rats; Dose was 90 μg/kg (column 100 μg/kg), given subcutaneously, 24 h between glucose & compound): +89** %
P239: cyclic PEGylated VPAC2 receptor peptide agonist (HSDAVFTENYTKLRKQ[Nle]AAKKYLNDLKQGGPSSGAPPPC; not fully specified (residue 39); ends and bridges not checked; also: cyclic, bridge type and places not given here, PEGylated, site not placed) [Agonist P239] | > 3 | > 25 |  | 
P255: cyclic PEGylated VPAC2 receptor peptide agonist (HSDAVFTENYTKL[Aib]KQ[Nle]AAKKYLNDLKQGGPSSGAPPPC; not fully specified (residue 39); ends and bridges not checked; also: cyclic, bridge type and places not given here, PEGylated, site not placed) [Agonist P255] | > 3 | > 25 |  | AUC0-last [1]: 5797 ng·h/mL; Cl/F [1]: 0.283 mL/min/kg; Vd/F [1]: 0.389 L/kg
P274: cyclic PEGylated VPAC2 receptor peptide agonist (HSDAVFTENYTKL[Aib]KQ[Nle]AAKKYLNDLKQKGGPSSGAPPPC; not fully specified (residue 40); ends and bridges not checked; also: cyclic, bridge type and places not given here, PEGylated, site not placed) [Agonist P274] | > 3 | > 25 |  | 
P277: cyclic PEGylated VPAC2 receptor peptide agonist (HSDAVFTENYTKLRKQ[Nle]AAKKYLNDLKQGGPSSGAPPPC; ends and bridges not checked; also: cyclic, bridge type and places not given here, PEGylated, site not placed) [Agonist P277] | > 3 | > 25 |  | 
P279: cyclic PEGylated VPAC2 receptor peptide agonist (HSDAVFTENYTKLR[Aib]Q[Nle]AAKKYLNDLKKGGPSSGAPPPC; not fully specified (residue 39); ends and bridges not checked; also: cyclic, bridge type and places not given here, PEGylated, site not placed) [Agonist P279] | > 3 | > 25 |  | 
P348: cyclic PEGylated VPAC2 receptor peptide agonist (HSDAVFTENYTKLR[Aib]Q[Nle]AAKKYLNDLK[Aib]KGGPSSGAPPPC; not fully specified (residue 40); ends and bridges not checked; also: cyclic, bridge type and places not given here, PEGylated, site not placed) [Agonist P348] | > 1.5 | > 25 |  | AUC0-last [1]: 1007 ng·h/mL; Cl/F [1]: 1.5 mL/min/kg; Vd/F [1]: 2.224 L/kg
P376: cyclic PEGylated VPAC2 receptor peptide agonist (HSDAVFTENYT[Orn]LR[Aib]Q[Nle]AA[Orn]KYLNDL[Orn][Orn]GGPSSGAPPPC; also: cyclic, bridge type and places not given here, PEGylated, site not placed) [Agonist P376] | > 3 | > 25 |  | 
P463: cyclic PEGylated VPAC2 receptor peptide agonist (HSDAVFTENYT[Orn]LR[Aib]Q[Nle]AA[Orn]KYLNDL[Orn][Orn]GGPSSGAPPPC; also: cyclic, bridge type and places not given here, PEGylated, site not given here) [Agonist P463] | > 3 | > 25 |  | 
HSDAVFTENYTKLR[Aib]Q[Nle]AAKKYLNDLKKGGPSSGAPPPC (also: further groups not given here) [P279 (cyclic PEGylated VPAC2 receptor peptide agonist)] |  |  | 0.00593 | IC50 (human VPAC2 receptor [3]): 0.0072 µM
B1 |  |  | 0.00882 | 
HSDAVFTENYTKL[Aib]KQ[Nle]AAKKYLNDLKQKGGPSSGAPPPC (also: further groups not given here) [P274 (cyclic PEGylated VPAC2 receptor peptide agonist)] |  |  | 0.0761 | IC50 (human VPAC2 receptor [3]): 0.126 µM
HSDAVFTENYTKLRKQ[Nle]AAKKYLNDLKQGGPSSGAPPPC (also: further groups not given here) [P277 (cyclic PEGylated VPAC2 receptor peptide agonist)] |  |  | 0.47 | IC50 (human VPAC2 receptor [3]): 0.0909 µM
